A protein production outcome set (Wang et al. 2014)

Assay: label from the status in PepcDB records

For “MKVVERYIMRRAFVVFLAALVWTLAIVWTTQVLAKIDLVTDSGQSSLTFFEVAALILPSIIPIVVPFALVVAVAQTLSVMNSDSELVVVNAAGASRWTIVRPIMLLALAASVFSFAVDNGIDPYARQKNRALVAQSRADLLSLIIQEGTFRKIEDGLFLQIGERLPDNRLGGIFVADSREEGVNLVYYAKTGSVVERGGEKVLMMNDGVIHRKTLTGDLSVIRFTSYAFDMSAFMAAASEVTLLPKDQTTQYLLNPNVNDKLYQQAPQQYRAEIDQRFSEWLYSMVFALIALAVAGDARSHREARVNPLITAITISLFVRWLGFFAASKADEVPQYAYMVYGVPIVASAVAIWFIVSNRTMELPVAWADWMTNLASRVGDGWNALKLRWSRRGTSGQGIG”, the protein production was “failed”.

For “MEEGPIKKKLKSAGQGSGKTDAFRNFEQFFFRLNTLYTFLICRKHVVPTFKTLCGPIETALKRTVTKEDLAMVMALMPRECVFKYIDENQIYTETKIFDFNNGGFQQKENDIFELKDVDDQNQTQKSTQLLIFEFIDGTMQRSWSASDRFSQIKIPTYTTEEMKKMISKREALFKSRLREFILEKEKANLDPFSELTNLAQKYIPRERDYEDPIEAMMKAKQESNEMSIPNYSNNSVITTIPQMIEKLKSTEFYASQIKHCFTIPSRTAKYKGLCFELAPEVYQGMEHENFYSHQADAINSLHQGENVIITTSTSSGKSLIYQLAAIDLLLKDPESTFMYIFPTKALAQDQKRAFKVILSKIPELKNAVVDTYDGDTEPEERAYIRKNARVIFTNPDMIHTSILPNHANWRHFLYHLKLVVVDELHIYKGLFGSHVALVMRRLLRLCHCFYENSGLQFISCSATLKSPVQHMKDMFGINEVTLIHEDGSPTGAKHLVVWNPPILPQHERKRENFIRESAKILVQLILNNVRTIAFCYVRRVCELLMKEVRNIFIETGREDLVTEVMSYRGGYSASDRRKIEREMFHGNLKAVISTNALELGIDIGGLDAVLMCGFPLSMANFHQQSGRAGRRNNDSLTLVVASDSPVDQHYVAHPESLLEVNNFESYQDLVLDFNNILILEGHIQCAAFELPINFERDKQYFTESHLRKICVERLHHNQDGYHASNRFLPWPSKCVSLRGGEEDQFAVVDITNGRNIIIEEIEASRTSFTLYDGGIFIHQGYPYLVKEFNPDERYAKVQRVDVDWVTNQRDFTDVDPQEIELIRSLRNSDVPVYFGKIKTTIIVFGFFKVDKYKRIIDAIETHNPPVIINSKGLWIDMPKYALEICQKKQLNVAGAIHGAQHAIMGMLPRFIVAGVDEIQTECKAPEKEFAERQTKRKRPARLIFYDSKGGKYGSGLCVKAFEHIDDIIESSLRRIEECPCSDGCPDCVAASFCKENSLVLSKPGAQVVLHCILGHSEDSFIDLIKDGPEPNMPEIKVETVIPVSEHVNFSDDFKIIDVRRATKDDTHTNEIIKKEI”, the protein production was “failed”.

With “MDKLDANVSSEEGFGSVEKVVLLTFLSTVILMAILGNLLVMVAVCWDRQLRKIKTNYFIVSLAFADLLVSVLVMPFGAIELVQDIWIYGEVFCLVRTSLDVLLTTASIFHLCCISLDRYYAICCQPLVYRNKMTPLRIALMLGGCWVIPTFISFLPIMQGWNNIGIIDLIEKRKFNQNSNSTYCVFMVNKPYAITCSVVAFYIPFLLMVLAYYRIYVTAKEHAHQIQMLQRAGASSESRPQSADQHSTHRMRTETKAAKTLCIIMGCFCLCWAPFFVTNIVDPFIDYTVPGQVWTAFLWLGYINSGLNPFLYAFLNKSFRRAFLIILCCDDERYRRPSILGQTVPCSTTTINGSTHVLSGCSPVSSFLLLFCNRPVPV” the protein production was “failed”.

For “EKAVLIGEKEADITFVTWGSQKGPILDVIEDLKEEGISANLLYLKMFSPFPTEFVKNVLSSANLVIDVESNYTAQAAQMIKLYTGIDIKNKILKYNGRHMTEDEILKSAKEILNK”, the protein production was “not failed”.

For “MAERSFSQLPISSSHIGRRTGNTRRGIFPVSEYWIHAIPVIVFLCFFTLWIFSHSVSVMNDGEIMSIHRLEKSMAVRNESHVSLAILASSAVSPASSALVAVVSTNQNLTTFHNATQSQQNATQSVNKAKQPHAV”, the protein production was “not failed”.

For “MISILLFALTSFLIGLSGAMAPGPLLTVTVSDSIRRGFRAGPLLVAGHVLGEALLVTLILMGLGYILRSGPAPAILGTAGGAVLIWMGILGFRDSEDTENIPEGGSILRGAIISFANPYFFLWWGAVGAALMYRGLELAGVLGLLAFLAGHWSSDLTWYSLVSFLSSRKSFRMNGRPYKIVMMILSLFLILFGVYFLIESLKAISGYS”, the protein production was “failed”.

In the case of “MLDRLRSIPVRGLFARLFSWLFFGLAFALVAATIVDVFELLNSDEPLMQAMINGVNGSIIALAVYELAMVIRSEYSGRSETHDIVTMMRRTLPRFISTVCVAMSLEGLIMIIKYSQLDLAGNLVYPVAIIASTALLLAALGVFLKMAPKEIGANGCDESCTTK”, the protein production is reported as “failed”.

In the case of “MLLDEIKRMSYDELKRLAEDIRKRITEVVLKNGGHLASNLGTIELTLALYRVFDPREDAIIWDTGHQAYTHKILTGRDDLFHTIRTFGGLSGFVTRRESPLDWFGTGHAGTSIAAGLGFEKAFELLGEKRHVVVVIGDGALTSGMALEALNQLKNLNSKMKIILNDNGMSISPNVGGLAYHLSKLRTSPIYLKGKKVLKKVLEKTEIGFEVEEEMKYLRDSLKGMIQGTNFFESLGLKYFGPFDGHNIELLEKVFKRIRDYDYSSVVHVVTKKGKGFTAAEENPTKYHSASPSGKPKMLSYSELLGHTLSRVAREDKKIVAITAAMADGTGLSIFQKEHPDRFFDLGITEQTCVTFGAALGLHGMKPVVAIYSTFLQRAYDQIIHDVALQNAPVLFAIDRSGVVGEDGPTHHGLFDINYLLPVPNMKIISPSSPEEFVNSLYTVLKHLDGPVAIRYPKESFYGEVESLLENMKEIDLGWKILKRGREAAIIATGTILNEVLKIPLDVTVVNALTVKPLDTAVLKEIARDHDLIITVEEAMKIGGFGSFVAQRLQEMGWQGKIVNLGVEDLFVPHGGRKELLSMLGLDSEGLTKTVLTYIKARSREGKV”, the protein production is reported as “failed”.

With “MEQIILDIIEFLKQFSYFGVVLALTFEFIPAEVVLPMVGYWVYEGDMNFWLAVLAGTLGGTTGPLTLYALGYYGGRPLLIKYGKYFFIKEEQIQKADDFFEKYGPVVAFVGRFVPGVRTLISVPCGMAKMNIWKFSIYTFVAMFPLTTLYVYFGMKLGPHWEKAADVVGQYMLPILGGVILIVASIFVYKYMKKRNKTESI” the protein production was “not failed”.

For “MDLRRRQWFLSAILLSAALLIDPQFSTAATASENLVFEVRSKFAGKRVKDLGALRAHDVHRHSRLLSAIDIPLGGDSQPESIGLYFAKIGLGTPSRDFHVQVDTGSDILWVNCAGCIRCPRKSDLVELTPYDVDASSTAKSVSCSDNFCSYVNQRSECHSGSTCQYVIMYGDGSSTNGYLVKDVVHLDLVTGNRQTGSTNGTIIFGCGSKQSGQLGESQAAVDGIMGFGQSNSSFISQLASQGKVKRSFAHCLDNNNGGGIFAIGEVVSPKVKTTPMLSKSAHYSVNLNAIEVGNSVLELSSNAFDSGDDKGVIIDSGTTLVYLPDAVYNPLLNEILASHPELTLHTVQESFTCFHYTDKLDRFPTVTFQFDKSVSLAVYPREYLFQVREDTWCFGWQNGGLQTKGGASLTILGDMALSNKLVVYDIENQVIGWTNHNCSGGIQVKDEESGAIYTVGAHNLSWSSSLAITKLLTLVSLLIPFFCNVAL”, the protein production was “not failed”.

In the case of “MRKTPSHTEKKMVYSIRSLKNGTGSVLIGASLVLLAMATPTISSDESTPTTNEPNNRNTTTLAQPLTDTAAGSGKNESDISSPGNANASLEKTEEKPAASPADPAPQTGQDRSSEPTTSTSPVTTETKAEEPIEDNYFRIHVKKLPEENKDAQGLWTWDDVEKPSENWPNGALSFKDAKKDDYGYYLDVKLKGEQAKKISFLINNTAGKNLTGDKSVEKLVPKMNEAWLDQDYKVFSYEPQPAGTVRVNYYRTDGNYDKKSLWYWGDVKNPSSAQWPDGTDFTATGKYGRYIDIPLNEAAREFGFLLLDESKQGDDVKIRKENYKFTDLKNHSQIFLKDDDESIYTNPYYVHDIRMTGAQHVGTSSIESSFSTLVGAKKEDILKHSNITNHLGNKVTITDVAIDEAGKKVTYSGDFSDTKHPYTVSYNSDQFTTKTSWRLKDETYSYDGKLGADLKEEGKQVDLTLWSPSADKVSVVVYDKNDPDKVVGTVALEKGERGTWKQTLDSTNKLGITDFTGYYYQYQIERQGKTVLALDPYAKSLAAWNSDDSKIDDAHKVAKAAFVDPAKLGPQDLTYGKIHNFKTREDAVIYEAHVRDFTSDPAIAKDLTKPFGTFEAFIEKLDYLKDLGVTHIQLLPVLSYYFVNELKNHERLSDYASSNSNYNWGYDPQNYFSLTGMYSSDPKNPEKRIAEFKNLINEIHKRGMGAILDVVYNHTAKVDLFEDLEPNYYHFMDADGTPRTSFGGGRLGTTHHMTKRLLIDSIKYLVDTYKVDGFRFDMMGDHDAASIEEAYKAARALNPNLIMLGEGWRTYAGDENMPTKAADQDWMKHTDTVAVFSDDIRNNLKSGYPNEGQPAFITGGKRDVNTIFKNLIAQPTNFEADSPGDVIQYIAAHDNLTLFDIIAQSIKKDPSKAENYAEIHRRLRLGNLMVLTAQGTPFIHSGQEYGRTKQFRDPAYKTPVAEDKVPNKSHLLRDKDGNPFDYPYFIHDSYDSSDAVNKFDWTKATDGKAYPENVKSRDYMKGLIALRQSTDAFRLKSLQDIKDRVHLITVPGQNGVEKEDVVIGYQITAPNGDIYAVFVNADEKAREFNLGTAFAHLRNAEVLADENQAGPVGIANPKGLEWTEKGLKLNALTATVLRVSQNGTSHESTAEEKPDSTPSKPEHQNEASHPAHQDPAPEARPDSTKPDAKVADAENKPSQATADSQAEQPAQEAQASSVKEAVRNESVENSSKENIPATPDKQAELPNTGIKNENKLLFAGISLLALLGLGFLLKNKKEN”, the protein production is reported as “failed”.

For “MSTKDKYDILNLCFYEKEAIMANVLFLVGSLRDGSFNHQMAKKAEAFLTDKAQVSYIDLAKIPLFNQDIETPILPEIAELRAQVDAADAIWIFSPVYNYAIPGIVKNALDWLSRSLDLSNPKGPSILQDKITTVSAVANSGHDHLFKDFQHLLPFIRTQIAGEFTGSTINPEAWGTGVLELSDETLTKLEQQVADLLAAIQ”, the protein production was “failed”.

In the case of “DDFETSLTELEPLEKDAYIVRLVFAGSTTTEPIVSSLSTAYDIKINILEANIKNTKNGTVGFLVLHIPYISSVDFGKFEKELIERQVKMEVLRHG”, the protein production is reported as “not failed”.

In the case of “SAVPGGMFAPSLAVGAGFGLNMSQLLPFLPQSMVVLLGMVGFFAGMTRAPMTGFVIVMEMTDTSGMIIPLMATALIAASVSRLVSRRALYDGQVRLFLPQWRTQAGQ”, the protein production is reported as “failed”.

In the case of “MQFGVTKESQCHYLTDQEERLVVALPNDLENLNADAYQQLMQYGFRRSHNDVYRPHCRLCSACQSLRVVVPEFRFSKNQKRILKKNDDLTLQIKQQPEAEYSQLFSQFIEQRHADGEMYPPDPDKFWKWIDCDWLTPELLEWRNASNELMIVSVVDRTVDAMSAVYTFFHPDEEKRSPGTFAVLEMIRLAQEREVARLYLGYQIDDCKKMNYKTRFAPYERLVGNHWKKELKSHTLKAQNKD”, the protein production is reported as “failed”.

With “MKELAGKNLGVTTRFVLRYVFQNTIHSIWRERNERRHGEKPSRTEKIVKLIDKNIRNRLSTIRVRGEEKYAQGTQMRFASRQYQIDRTFL” the protein production was “failed”.

In the case of “MTAHPPRPELQIDIVSDVVCPWCIVGFRQLDQALAATGVLARLRWHPFELNPQMGPEGQNLREHIMEKYGSTPEQSAEARARLTAIGAELGFTFNFTDDSRIVNTFAAHQLLDWAEGQGRQHPLKQALFAAYFTDGRDVSDLSVLLDAVEAAGLDREAAQTALTSGAHQAPVREKQKFWAQHGISGVPSMVFGGKYLLTGAQGADTYAQVIQRCLAEAA”, the protein production is reported as “not failed”.
